In PMC12782892, “Natural variations in MdBPM2/MdRGLG3‐MdNAC83 network controlling the quantitative segregation of apple fruit storability”:

Target: MdNAC83 (Malus domestica, UniProt D9ZJA0 1-255)
Assay: EMSA; LightShift Chemiluminescent EMSA kit (Thermo), per Fan et al. 2018; buffer, salt, pH and temperature not stated
Conditions: protein: recombinant, tags: His (pET-32a), chain copies: 2, blunt

MdNAC83, sequence (D9ZJA0 entry or part of it): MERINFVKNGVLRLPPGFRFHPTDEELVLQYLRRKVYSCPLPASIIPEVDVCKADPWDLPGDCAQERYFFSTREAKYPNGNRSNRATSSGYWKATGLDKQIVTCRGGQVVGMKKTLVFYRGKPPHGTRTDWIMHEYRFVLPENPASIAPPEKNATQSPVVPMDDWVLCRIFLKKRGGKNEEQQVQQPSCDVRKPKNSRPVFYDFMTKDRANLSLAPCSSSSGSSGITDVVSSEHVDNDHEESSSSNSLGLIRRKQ

B1: MdXTH28 promoter probe (MdXH28-F/R) (dsDNA)
DNA 1: CCGTCCAAACCAGTAAACACGTAATTATAATCTCATTTAT
DNA 2: ATAAATGAGATTATAATTACGTGTTTACTGGTTTGGACGG
- binding result ((LightShift kit)): binds

B2: MdMANA3 promoter probe (MdMAN3-F/R) (dsDNA)
DNA 1: GGTTAATTTTCTCAATTTCGTATTGATTTACTCTTGTACT
DNA 2: AGTACAAGAGTAAATCAATACGAAATTGAGAAAATTAACC
- binding result ((LightShift kit; MdMAN3-HotF)): binds

B3: MdACO1 promoter probe (MdACO1-F/R) (dsDNA)
DNA 1: TTGGTAGGGGTCCATCAGGACGTGCTTACTGTTCCCTACT
DNA 2: AGTAGGGAACAGTAAGCACGTCCTGATGGACCCCTACCAA
- binding result ((LightShift kit; MdACO1-HotF)): binds
